Four substances from US20120135923A1, “Use of Melanocortins to Treat Dyslipidemia” (IPSEN PHARMA, S.A.S., priority 2009, published 2012) can be followed below.

A word on the Ki: it is a dissociation constant, usually derived from enzyme kinetics or from competition with a known ligand. Read a high Ki as lower affinity.

Test [1] concerns the target hMC5-R (human) (UniProt P33032). As to the kind of experiment: competition with [125I]-NDP-α-MSH, CHO-K1 membranes.
Test [2] concerns the target hMC3-R (human) (UniProt P41968). The description is as above.
The target of test [3] is hMC4-R (human) (UniProt P32245). Described as above.
hMC4-R (human), sequence (P32245 whole entry): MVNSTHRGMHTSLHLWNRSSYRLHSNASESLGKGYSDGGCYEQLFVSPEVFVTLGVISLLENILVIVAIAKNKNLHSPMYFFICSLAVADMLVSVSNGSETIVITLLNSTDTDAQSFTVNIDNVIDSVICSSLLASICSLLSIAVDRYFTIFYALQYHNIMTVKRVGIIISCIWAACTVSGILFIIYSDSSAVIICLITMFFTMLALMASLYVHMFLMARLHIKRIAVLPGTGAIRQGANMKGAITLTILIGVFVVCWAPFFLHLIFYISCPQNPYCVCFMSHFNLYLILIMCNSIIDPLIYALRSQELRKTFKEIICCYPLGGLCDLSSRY
The target in test [4] is hMC1-R (human) (UniProt Q01726). The description is as above.
hMC1-R (human), sequence (Q01726 whole entry): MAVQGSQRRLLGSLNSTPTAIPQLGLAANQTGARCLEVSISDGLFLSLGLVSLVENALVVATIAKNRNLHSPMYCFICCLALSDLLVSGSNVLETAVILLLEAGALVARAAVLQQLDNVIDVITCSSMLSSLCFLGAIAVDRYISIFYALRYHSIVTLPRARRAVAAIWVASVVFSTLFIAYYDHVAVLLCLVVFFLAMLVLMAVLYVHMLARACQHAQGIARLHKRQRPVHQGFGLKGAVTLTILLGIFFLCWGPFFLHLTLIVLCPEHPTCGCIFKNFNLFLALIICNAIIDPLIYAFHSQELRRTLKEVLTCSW
The target is the same in test [5]. As to the kind of experiment: ratio Ki hMC1-R / Ki hMC4-R, same assay.
Test [6] deals with hMC5-R (human) (UniProt P33032). As to the kind of experiment: cell-based or functional assay.
hMC5-R (human), sequence (P33032 whole entry): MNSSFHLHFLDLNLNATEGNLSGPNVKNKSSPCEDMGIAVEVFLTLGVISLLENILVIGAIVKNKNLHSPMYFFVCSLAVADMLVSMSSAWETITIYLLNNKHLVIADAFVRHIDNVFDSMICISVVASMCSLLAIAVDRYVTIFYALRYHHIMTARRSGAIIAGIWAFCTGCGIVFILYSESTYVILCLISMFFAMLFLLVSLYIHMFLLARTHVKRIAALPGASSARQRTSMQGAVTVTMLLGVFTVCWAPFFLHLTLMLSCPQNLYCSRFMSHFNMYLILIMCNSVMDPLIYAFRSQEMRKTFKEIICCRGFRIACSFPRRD
Test [7] concerns the target human melanocortin receptor subtype 5 (hMC5-R) (human) (UniProt P33032). As to the kind of experiment: [125I]-NDP-α-MSH competition, membranes.
Test [8] concerns the target human melanocortin receptor subtype 1 (hMC1-R) (human) (UniProt Q01726). As to the kind of experiment: [125I]-NDP-α-MSH competition, membranes.
Test [9] has as its target human melanocortin receptor subtype 4 (hMC4-R) (human) (UniProt P32245). As to the kind of experiment: [125I]-NDP-α-MSH competition, membranes.
Test [10] addresses human melanocortin receptor subtype 3 (hMC3-R) (human) (UniProt P41968). As to the kind of experiment: [125I]-NDP-α-MSH competition, membranes.

hMC3-R (human), sequence (P41968 whole entry): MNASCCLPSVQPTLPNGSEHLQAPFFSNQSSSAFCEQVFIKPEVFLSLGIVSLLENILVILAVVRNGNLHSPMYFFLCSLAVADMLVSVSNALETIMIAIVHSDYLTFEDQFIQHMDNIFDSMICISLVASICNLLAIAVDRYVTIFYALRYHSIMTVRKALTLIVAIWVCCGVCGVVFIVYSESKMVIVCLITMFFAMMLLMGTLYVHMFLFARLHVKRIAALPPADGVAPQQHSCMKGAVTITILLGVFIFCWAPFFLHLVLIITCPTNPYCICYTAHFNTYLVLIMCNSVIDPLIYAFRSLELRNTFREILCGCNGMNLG
human melanocortin receptor subtype 4 (hMC4-R) (human), sequence (P32245 whole entry): as the sequence (P32245 whole entry) above
human melanocortin receptor subtype 3 (hMC3-R) (human), sequence (P41968 whole entry): as the sequence (P41968 whole entry) above
human melanocortin receptor subtype 5 (hMC5-R) (human), sequence (P33032 whole entry): as the sequence (P33032 whole entry) above
human melanocortin receptor subtype 1 (hMC1-R) (human), sequence (Q01726 whole entry): as the sequence (Q01726 whole entry) above

Take “Ac-Nle-c(Cys-D-Ala-His-D-2-Nal-Arg-Bal-Cys)-NH2 (peptide)”: the Ki in test [1] amounted to 125 nM; in test [2], 12.7 nM; in [3], 16.6 nM; in test [4], 22.2 nM. The Ki hMC1-R/MC4-R in test [5] was found to be 1.34.
Turning to “Ac-Cha-c(Asp-His-D-2-Nal-Arg-Trp-Gaba-Lys)-NH2 (peptide)”, the Ki in [1] stood at 3.91 nM; in test [2], 3.98 nM; in test [3], 2.82 nM; in [4], 0.576 nM. The Ki hMC1-R/MC4-R in test [5] was 0.2.
For the substance “D-Phe-c(Cys-His-D-(Et)Tyr-hArg-Trp-β-Ala-D-Cys)-Thr-NH2 (peptide)”, the Ki in [1] is 9.27 nM; in test [2], 31.4 nM; in test [3], 14.7 nM; in [4], 0.0567 nM. The Ki hMC1-R/MC4-R in test [5] is 0.
Consider “Hydantoin(C(O)-(D-Arg-Gly))-c(Cys-D-Ala-His-D-Phe-Arg-Trp-Cys)-NH2 (peptide)”, for which, in test [6], the cAMP EC50 was 3950 nM. The Ki came to 872 nM in [7], 3.52 nM in test [8], 5.78 nM in test [9] and 48.7 nM in test [10].
